{"source": "paper PMC8523606", "about": "“Two fungal flavonoid-specific glucosidases/rutinosidases for rutin hydrolysis and rutinoside synthesis under homogeneous and heterogeneous reaction conditions” (AMB Express, 2021)", "details_in_all_cases": "50 mM citrate buffer, 10% (v/v) DMSO", "key": {"[1]": {"tested_on": "O=c1c(O[C@@H]2O[C@H](CO)[C@@H](O)[C@H](O)[C@H]2O)c(-c2ccc(O)c(O)c2)oc2cc(O)cc(O)c12", "test": "purified protein"}, "[2]": {"tested_on": "COc1cc(-c2oc3cc(O)cc(O)c3c(=O)c2O[C@@H]2O[C@H](CO[C@@H]3O[C@@H](C)[C@H](O)[C@@H](O)[C@H]3O)[C@@H](O)[C@H](O)[C@H]2O)ccc1O", "test": "purified protein"}, "[3]": {"tested_on": "C[C@@H]1O[C@@H](OC[C@H]2O[C@@H](Oc3c(-c4ccc(O)c(O)c4)oc4cc(O)cc(O)c4c3=O)[C@H](O)[C@@H](O)[C@@H]2O)[C@H](O)[C@H](O)[C@H]1O", "test": "purified protein"}, "[4]": {"tested_on": "COc1ccc([C@@H]2CC(=O)c3c(O)cc(O[C@@H]4O[C@H](CO[C@@H]5O[C@@H](C)[C@H](O)[C@@H](O)[C@H]5O)[C@@H](O)[C@H](O)[C@H]4O)cc3O2)cc1O", "test": "purified protein"}, "[5]": {"substrate": "C[C@@H]1O[C@@H](OC[C@H]2O[C@@H](Oc3c(-c4ccc(O)c(O)c4)oc4cc(O)cc(O)c4c3=O)[C@H](O)[C@@H](O)[C@@H]2O)[C@H](O)[C@H](O)[C@H]1O", "test": "hydrolysis, aglycone release by HPLC", "type": "biochemical, Penicillium rubens", "source_text": "(§1) hydrolysis, aglycone release by HPLC on PcGlc"}, "[6]": {"substrate": "COc1cc(-c2oc3cc(O)cc(O)c3c(=O)c2O[C@@H]2O[C@H](CO[C@@H]3O[C@@H](C)[C@H](O)[C@@H](O)[C@H]3O)[C@@H](O)[C@H](O)[C@H]2O)ccc1O", "test": "hydrolysis, aglycone release by HPLC", "type": "biochemical, Penicillium rubens", "source_text": "as §1"}, "[7]": {"substrate": "COc1ccc([C@@H]2CC(=O)c3c(O)cc(O[C@@H]4O[C@H](CO[C@@H]5O[C@@H](C)[C@H](O)[C@@H](O)[C@H]5O)[C@@H](O)[C@H](O)[C@H]4O)cc3O2)cc1O", "test": "hydrolysis, aglycone release by HPLC", "type": "biochemical, Penicillium rubens", "source_text": "as §1"}, "[8]": {"substrate": "O=c1c(O[C@@H]2O[C@H](CO)[C@@H](O)[C@H](O)[C@H]2O)c(-c2ccc(O)c(O)c2)oc2cc(O)cc(O)c12", "test": "hydrolysis, aglycone release by HPLC", "type": "biochemical, Penicillium rubens", "source_text": "as §1"}}}
{"molecule": "McGlc (Mucor circinelloides)", "values": [{"measurement": "Km", "setting": "[1]", "result": "40 ± 10", "unit": "µM"}, {"measurement": "kcat", "setting": "[1]", "result": "53.9 ± 1.9", "unit": "s⁻¹"}, {"measurement": "kcat/Km", "setting": "[1]", "result": "1.35e+06", "unit": "M⁻¹ s⁻¹"}, {"measurement": "Km", "setting": "[2]", "result": "210 ± 90", "unit": "µM"}, {"measurement": "kcat", "setting": "[2]", "result": "69.1 ± 6", "unit": "s⁻¹"}, {"measurement": "kcat/Km", "setting": "[2]", "result": 257000, "unit": "M⁻¹ s⁻¹"}, {"measurement": "Km", "setting": "[3]", "result": "120 ± 30", "unit": "µM"}, {"measurement": "kcat", "setting": "[3]", "result": "22.7 ± 0.5", "unit": "s⁻¹"}, {"measurement": "kcat/Km", "setting": "[3]", "result": 189000, "unit": "M⁻¹ s⁻¹"}, {"measurement": "Km", "setting": "[4]", "result": "4800 ± 100", "unit": "µM"}, {"measurement": "kcat", "setting": "[4]", "result": "23 ± 1.7", "unit": "s⁻¹"}, {"measurement": "kcat/Km", "setting": "[4]", "result": 4800, "unit": "M⁻¹ s⁻¹"}]}
{"molecule": "PcGlc (Penicillium rubens Wisconsin 54-1255) (protein, secreted from recombinant Pichia pastoris KM71H, purified by cation exchange chromatography, glycosylated) TPTSFHLSPNNNISHDYINWRTFHGRGVNLGGWLQQESTIDTSWWSTYSGGASDEWNLCAQLGSKCGPVLEHRYKTFITTRDIDTLASSGVTVLRIPTSYAAWVRVPGSQLYSGKQKEHIHRIATYAIEKYDMHIILDIHSLPGGINGLDIGEAVGHWGWYNNDTALKYSLDAVDSALHFIQFSSGHPQSYTLSPINEPVDNRDFSTFGTPAALSEAGASWVLKYLHAVIDRTKKVNPRIPVMCQGSFKPETYWSPHFDAGANIVFDEHHYYFQYSNSTSANLPEFLCQDAKKSAGDGKFPTFVGEWAIEASDNDLGLRGQNLQAGISAFGQFTRGSSYWTAKFSSNATIKGEGVKGNYWNYEEFVRMGYLDGQVEVPNYCQ", "values": [{"measurement": "Km", "setting": "[5]", "result": "210 ± 60", "unit": "µM"}, {"measurement": "kcat", "setting": "[5]", "result": "39.3 ± 1.2", "unit": "s⁻¹"}, {"measurement": "kcat/Km", "setting": "[5]", "result": 187000, "unit": "M⁻¹ s⁻¹"}, {"measurement": "Km", "setting": "[6]", "result": "290 ± 100", "unit": "µM"}, {"measurement": "kcat", "setting": "[6]", "result": "120 ± 13", "unit": "s⁻¹"}, {"measurement": "kcat/Km", "setting": "[6]", "result": 414000, "unit": "M⁻¹ s⁻¹"}, {"measurement": "Km", "setting": "[7]", "result": "380 ± 90", "unit": "µM"}, {"measurement": "kcat", "setting": "[7]", "result": "9.3 ± 0.8", "unit": "s⁻¹"}, {"measurement": "kcat/Km", "setting": "[7]", "result": 24500, "unit": "M⁻¹ s⁻¹"}, {"measurement": "Km", "setting": "[8]", "result": "30 ± 6", "unit": "µM"}, {"measurement": "kcat", "setting": "[8]", "result": "30.3 ± 1.5", "unit": "s⁻¹"}, {"measurement": "kcat/Km", "setting": "[8]", "result": "1.01e+06", "unit": "M⁻¹ s⁻¹"}]}
